This is an account of results in PMC8709496, “Highly Active Thermophilic L-Asparaginase from Melioribacter roseus Represents a Novel Large Group of Type II Bacterial L-Asparaginases from Chlorobi-Ignavibacteriae-Bacteroidetes Clade” (International Journal of Molecular Sciences, 2021).

Substrate in this data set: NC(=O)C[C@H](N)C(=O)O
Put plainly: purified protein. To be noted: borate buffer 0.025 M, pH 9.3, 70 °C. Type of data set: biochemical, Melioribacter roseus.

In general, Km refers to the substrate concentration at which the rate is half of its maximum.

B1: MrAII (type II L-asparaginase from M. roseus) (Melioribacter roseus P3M-2) (protein)
chain: MKNILIIFTGGTFSMKIDRETNSAVPYYHGEELLKIIPEADKKANISVYEFGNYPGPHMTPELMLELSEIVKKYINQNDTDGIIITHGTDTLEETAYFLDLTVKTEKPIVVIGAMKTSSEPDWDGPKNLLDAISIINNPNSGNMGVLVCLNGEINAASEVTKTHTEDIETFHSLDFGSLGFVENDRVIFNRLPRKLETFETAKINSNVDLIKVYAGMNEKFFKFSADSGADGLVVEAMGVGNVPPKAFEGIKYVIEKGIPVVLVSRCPAGETLDIYGYEGAGKWLKKAGVIFSDYLNGQKARIKLIVCLGITNEIAKLRSMFEDEQ
notes: synthetic native gene (981 nt, printed as 327 aa) in pET-28a(+) NheI/SalI, E. coli BL21(DE3); Q-Sepharose purified
As for B1, the Michaelis constant (Km) came out at 1400 µM.
